This is an account of results in patent US20220298231A1 (AC IMMUNE, published 2022).

For assay [1], the target named is T1, 82-96aa.
T1 construct: also called alpha-synuclein peptide 82-96
T1 peptide: {Biotin-Ahx}-VEGAGSIAAATGFVK
The assay is described as follows: 15-mer peptide ELISA.
Method: (§1) Epitope mapping for the antibodies derived from stable hybridoma clones was determined using an indirect ELISA on a library of 15-mer peptides covering the entire sequence of human alpha-synuclein from 1 to 140aa. […] Results are expressed as optical density (O.D.). Each bar represents data for an individual antibody.
(§2) Serum-free supernatants were harvested from stable hybridomas. The supernatants containing antibodies of interest were then screened by an indirect ELISA assay to determine epitopes. Epitopes were first determined using a library of 15-mer peptides covering the entire sequence of human alpha-synuclein protein, spanning amino acids (aa) 1-140 with 9aa offset and 6aa overlap. […] Briefly, streptavidin-coated ELISA plates were blocked overnight at 4° C. […] Plates were washed with PBS/0.05% Tween® 20 and then incubated with the hybridoma supernatants at 1/100 dilution for 1 hour at 25° C. […] After final wash, plates were incubated 2 hours at 25° C. with alkaline phosphatase substrate (p-nitrophenyl phosphate disodium hexahydrate; pNPP, S0942, Sigma) and read the absorbance optical density (O.D.) signal at 405 nm using an ELISA plate reader (Tecan, Switzerland).

Assay [2] deals with T2, 37-51aa.
T2 construct: also called alpha-synuclein peptide 37-51
T2 peptide: {Biotin-Ahx}-VLYVGSKTKEGVVHG
The assay is described as follows: 15-mer peptide ELISA. (ELISA stands for enzyme-linked immunosorbent assay.)
Method: as §1, §2

Assay [3] has as its target T3, 1-15aa.
T3 construct: also called alpha-synuclein peptide 1-15
T3 peptide: {Biotin-Ahx}-MDVFMKGLSKAKEGV
Put plainly: 15-mer peptide ELISA.
Method: as §1, §2

Assay [4] addresses T4, 91-105aa.
T4 construct: also called alpha-synuclein peptide 91-105
T4 peptide: {Biotin-Ahx}-ATGFVKKDQLGKNEE
Put plainly: indirect ELISA on biotinylated 15-mer peptide (streptavidin plate), supernatant 1/100.
Method: as §1, §2

The target in assay [5] is T4, 91-105aa. Described as above.
Method: as §1, §2
For another assay, the target named is T5, 100-114aa.
T5 peptide: {Biotin-Ahx}-LGKNEEGAPQEGILE
Put plainly: 15-mer peptide ELISA.

Assay [6] addresses T1, 82-96aa. Put plainly: 15-mer peptide ELISA.
Method: as §1, §2
A further assay has as its target T6, 109-123aa.
T6 peptide: {Biotin-Ahx}-QEGILEDMPVDPDNE
The assay is described as follows: 15-mer peptide ELISA.

In the next assay the target is alpha-synuclein fibrils (Homo sapiens (Human), UniProt P37840 1-140). The assay is described as follows: SPR, mAb captured. For orientation: In SPR one partner is held on a chip, and binding of the other changes the refractive index at the surface.
For assay [7], the target named is human full-length alpha-synuclein (human, UniProt P37840 1-140). Put plainly: SPR, mAb captured.
Method: (§3) Immobilization levels were evaluated following ethanolamine capping (Bound) and finally following regeneration (Final). Non-covalent immobilization of alpha-synuclein antibodies was performed using a target immobilization method of 2000 response units (RU).
(§4) Binding affinity of alpha-synuclein antibodies to monomeric or fibrillar alpha-synuclein species was performed using a single-cycle kinetics method. […] A dissociation phase of 900 sec followed the final 50 nM injection. Regeneration of the sensor to the goat anti-mouse antibody layer was achieved using 3 regenerations of 10 mM Glycine pH 1.7. […] Regeneration of the sensor to the goat anti-mouse antibody layer was achieved using 3 regenerations of 10 mM Glycine pH 1.7. Results obtained from single-cycle kinetics were evaluated by Biacore T200 evaluation software with 1:1 binding homogenous Langmuir model (with a global Rmax) with Cycle 5 as a blank subtraction. The following kinetic parameters were obtained: on-rate (ka), off-rate (kd), affinity constant (KD, ratio of kd by ka), maximum response (Rmax), and goodness of fit (Chi2).
(§5) Non-covalent capture of the alpha-synuclein antibodies was performed in three separate runs.
Assay [8] concerns the target T3, 1-15aa. The assay is described as follows: indirect ELISA on biotinylated 15-mer peptide (streptavidin plate), supernatant 1/100.
Method: as §1, §2
For assay [9], the target named is T4, 91-105aa. The assay is described as follows: 15-mer peptide ELISA.
Method: as §1, §2
For assay [10], the target named is 28-42aa. The assay is described as follows: 15-mer peptide ELISA.
Method: as §1, §2
Assay [11] has as its target T1, 82-96aa. Put plainly: indirect ELISA on biotinylated 15-mer peptide (streptavidin plate), supernatant 1/100.
Method: as §1, §2
The target in assay [12] is T2, 37-51aa. The assay is described as above.
Method: as §1, §2
Assay [13] concerns the target 28-42aa. The description is as above.
Method: as §1, §2

Substitutions are numbered along the chain they refer to. Where no end group is shown, it is not given here. The star is where a group is joined. Biotin = O=C1N[C@H]2[C@H](CS[C@H]2CCCCC(=O)*)N1; Ahx = NCCCCCC(=O)O

Method for 100-114aa: as §1, §2
Method for 109-123aa: as §1, §2
Method for alpha-synuclein fibrils: as §3, §4, §5

B1: ACI-7088-4303H6-Ab1 (antibody, V domains shown)
VH: EVQLQQSGAELVRPGASVKLSCTASGFNIQDDYMHWVKQRPEQGLEWIGWIDPENGDTEYASKFQGKATLTADTSSNTAYLQLSRLTSEDTAVYYCTTAGSGVQLFDYWGQGTTLTVSA
VL: DILMTQSQKFMSTSVGDRVSVTCKASQNVGTNVAWYQQKPGQSPKPLISSASSRYSGVPDRFTGSGSGTDFTLTISNVQSEDLADYFCQQYNRYPLTFGAGTKLELK
notes: mouse hybridoma mAb; tied by the hybridoma code 4303H6D7; also called 4303H6D7
Consider B1, for which the binding result in the assay with 82-96aa [1] is given as “no binding (tested: supernatant 1/100)”; with 37-51aa [2], “no binding (tested: supernatant 1/100)”; with 1-15aa [3], “no binding (tested: supernatant 1/100)”; in the assay with 91-105aa [4] it was “binds”.

B2: ACI-8033-4F3-Ab1 (antibody, V domains shown)
VH: EVQLQQSGPELVKPGASVKISCKASGYTFTDYYMNWVKQSHGKSLEWIGDINPNTGTNSYNQKFKGRASLTVDKFSSAAYMELRSLTSEDSAVYYCARTGYGDPISSYYYALDYWGQGTSVTVSS
VL: DIVMSQSPSSLAVSAGEKVTMSCKSSQSLLNSRTRKNYLAWYQQKPGQSPKLLIYWASTRESGVPDRFTGSGSGTDFTLTISSVQAEDLAVYYCKQSYNLWTFGGGTKLEIK
notes: mouse hybridoma mAb; also called 917.4F3F4G6
In the case of B2, the binding result with 91-105aa [5] was “binds”; with 100-114aa it was “no binding (tested: supernatant 1/100)”; in the assay with 82-96aa [6], “no binding (tested: supernatant 1/100)”; with 109-123aa, “no binding (tested: supernatant 1/100)”.

B3: ACI-7088-4303B6-Ab2 (antibody, V domains shown)
VH: EVQLQQSGPELVKPGASVKISCKASGYTFTDYYMNWVKQSHGKSLEWIGDINPNNGGTTYNQKFKDKATLTVDRSSSTAYMELRSLTSGDSAVYYCARSGYSGSRLYYAMDYWSQGSSVTVSS
VL: B2 VL with G16R, Y55F, N99D
notes: mouse hybridoma mAb; tied by the hybridoma code 4303B6C11; also called ACI-7088-4303B6-Ab1; 4303B6C11
As for B3, the Kd with alpha-synuclein fibrils came out at 9.5 nM; in assay [7], 78.5 nM. Further, the koff in the assay with alpha-synuclein fibrils is 0.00013 s⁻¹; in assay [7], 0.106 s⁻¹. For the same molecule, the kon with alpha-synuclein fibrils was found to be 13700 M⁻¹ s⁻¹; in [7], 1.35e+06 M⁻¹ s⁻¹. In addition, the binding result is reported as “binds” with 1-15aa [8]; “no binding (tested: supernatant 1/100)” with 91-105aa [9]; “no binding (tested: supernatant 1/100)” in the assay with 82-96aa [1]; “no binding (tested: supernatant 1/100)” in the assay with 37-51aa [2]; “no binding (tested: supernatant 1/100)” with 28-42aa [10].

B4: ACI-8033-17F5-Ab1 (antibody, V domains shown)
VH: EVQLQQSGPELVKPGASVKISCKASGYTFTDYFMNWVKQSHGKSLEWIGDINPNIDVTNYNQKFKGKATLTVDKSSSTAYMELRSLTSEDSAVYYCARGRDYAMDFWGQGTSVTVSS
VL: B2 VL with N99D
notes: mouse hybridoma mAb; also called 917.17F5F5G9
With B4, the binding result in the assay with 91-105aa [5] is “binds”; with 100-114aa it was “no binding (tested: supernatant 1/100)”; in the assay with 82-96aa [6], “no binding (tested: supernatant 1/100)”; in the assay with 109-123aa, “no binding (tested: supernatant 1/100)”.

B5: ACI-7088-4305H7-Ab1 (antibody, V domains shown)
VH: EVQLQQSGAELVRPGASVKLSCTASGFNIKDDYMHWVKQRPEQGLEWIGWIDPENGDTEYASKFQGKATMIADTSSNTAYLQLSSLTSEDTAVYYCKTWGTTQALFPYWGQGTLVTVSS
VL: DIVMTQSQKFMSTSVGDRVSITCKASQNVGTAVGWYQQKAGQSPKLLIHSASNRYTGVPDRFTGSGSGTDFTLTINNMQSEDLADYFCQQYRSYPLTFGAGTKLELK
notes: mouse hybridoma mAb; also called 4305H7A4
As for B5, the binding result is given as “binds” with 1-15aa [8], “no binding (tested: supernatant 1/100)” with 82-96aa [1], “no binding (tested: supernatant 1/100)” with 37-51aa [2] and “binds” with 91-105aa [4].

B6: ACI-8033-8C10-Ab1 (antibody, V domains shown)
VH: DVQLQESGPGLVKPSQSLSLTCSVTGQSITSGYYWNWIRQFPGNKLEWMGYISNDGSSKTNPSLTNRISVTRDTSKNQVFLKLKSVTTEDTATYYCVRGDQHWGQGTALTVSS
VL: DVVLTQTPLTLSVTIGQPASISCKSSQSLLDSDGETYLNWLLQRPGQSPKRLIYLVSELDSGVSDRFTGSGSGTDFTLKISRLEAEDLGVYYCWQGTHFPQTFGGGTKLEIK
notes: mouse hybridoma mAb; also called 917.8C10C6G3
In the case of B6, the binding result in the assay with 82-96aa [11] is given as “binds”; in the assay with 100-114aa, “no binding (tested: supernatant 1/100)”; with 109-123aa it was “no binding (tested: supernatant 1/100)”.

B7: ACI-7089-4417G6-Ab1 (antibody, V domains shown)
VH: QVQLQQSGAELVRPGASVTLSCKASGYTFTGYEMHWVKQTPVHGLEWIGAIDPETGGTAYIQKFKGKATLTADKSSSTAYMELRSLTSEDSAVYYCTRGWDYFDYWGQGTTLTVSA
VL: DVVMTQTPLSLPVSLGDQASISCRSSQSLLHSNGFTYLHWYLQKPGQSPKLLIYRVSNRFSGVPDRFSGSGSGTDFTLKISRVEAEDLGVYFCSQSTHVPYTFGGGTKLEIK
notes: mouse hybridoma mAb; also called 4417G6B12
For the molecule B7, the Kd with alpha-synuclein fibrils was found to be 48.7 nM; in [7], 22.6 nM. Moreover, the results for the koff (with alpha-synuclein fibrils; in [7]) were 0.00874 s⁻¹ and 5.58 s⁻¹, respectively. The kon was 179000 M⁻¹ s⁻¹ in the assay with alpha-synuclein fibrils and 2.47e+08 M⁻¹ s⁻¹ in [7]. Also, the binding result with 91-105aa [9], in the assay with 82-96aa [1], in the assay with 28-42aa [10] and with 1-15aa [3] was “no binding (tested: supernatant 1/100)” throughout.

B8: ACI-7088-4301D5-Ab2 (antibody, V domains shown)
VH: QVQLQQSGPELVRPGASVKISCKASGYRFTSYYIHWVKQRPGQGLEWIGWIYPGSDNTKHNDKFKGKATLTADTSSSTAYMQLSSLTSEDSAVYFCARDYDVGFGYWGQGTLVTVSS
VL: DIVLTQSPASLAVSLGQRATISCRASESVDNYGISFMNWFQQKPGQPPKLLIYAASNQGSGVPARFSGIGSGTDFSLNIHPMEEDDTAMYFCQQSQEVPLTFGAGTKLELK
notes: mouse hybridoma mAb; also called 4301D5B10
Take B8: the binding result with 37-51aa [12] is “binds”; in the assay with 28-42aa [13] it was “binds”; with 91-105aa [9], “no binding (tested: supernatant 1/100)”; in the assay with 82-96aa [1], “no binding (tested: supernatant 1/100)”; in the assay with 1-15aa [3], “no binding (tested: supernatant 1/100)”.

B9: ACI-7087-4119E10-Ab2 (antibody, V domains shown)
VH: QVQLQQSGAELVRPGASVTLSCKASGYTFSDYEMNWVKQTPVHGLEWIGAIDPETGGTAYNQKFKGKAILTSDKSSSTAYMELRSLTSEDSAVYYCTRFLLIDFDYWGQGTTLTVSS
VL: DVLMTQTPLSLPVSLGDQASISCRSSQSIVHSNGNTYLEWYLKKAGQSPKVLIYKVSNRFSGVPDRFSGSGSGTDFTLKISRVEAEDLGVYYCFQGSHVPYTFGGGTELEIK
notes: mouse hybridoma mAb; also called 4119E10D12
As for B9, the binding result is “binds” in the assay with 37-51aa [12]; “binds” in the assay with 28-42aa [13]; “no binding (tested: supernatant 1/100)” in the assay with 91-105aa [9]; “no binding (tested: supernatant 1/100)” in the assay with 82-96aa [1]; “no binding (tested: supernatant 1/100)” in the assay with 1-15aa [3].

For orientation: Kd means the constant that tells how readily two partners part at equilibrium. The low end stands for a tighter complex, the high end for a looser complex. As usually defined, the koff is a measure of how fast the partners let go of each other. A low value points to a long-lived complex. Broadly, the kon is a measure of how fast the partners come together.
